Laboratory results as given in the supplement of paper PMC10724198.
± gives the standard deviation of the averaged measurements.

Tests used:
[1] = test system: Saccharomyces cerevisiae; test: protein stability index of tFT-peptide fusion (C-terminal peptide) (PSI (0-1 scale)); higher = more stable (slower turnover); settings: genetic background: wild type; temperature: 30 C
[2] = test system: Saccharomyces cerevisiae; test: as above
Experimental: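 MPS profiling in S. cerevisiae of the tFT-X12 degron library: putative degron peptides plus stable controls, 12 aa, fused to the C-terminus of a sfGFP-mCherry timer. Cells are FACS-sorted into 8 mCherry/sfGFP bins and deep-sequenced. PSI runs from 0 (unstable) to 1 (stable). Backgrounds are wild type, das1Δ and doa10Δ at 30 °C, and wild type, das1Δ, cdc34-1 and cdc53-1 at 37 °C; 2-3 technical replicates each.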

[3] = genetic background: cdc34-1, temperature: 37 C
[4] = genetic background: cdc53-1, temperature: 37 C
[5] = genetic background: das1 deletion, temperature: 30 C
[6] = genetic background: das1 deletion, temperature: 37 C
[7] = genetic background: doa10 deletion, temperature: 30 C
[8] = genetic background: wild type, temperature: 30 C
[9] = genetic background: wild type, temperature: 37 C
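Note: PSI is a weighted mean of sequencing reads over stability bins, variants kept only with over 10 reads, mCherry proximal and sfGFP distal, peptide attached via GGGS linker.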

Sequence	protein stability index [1]	protein stability index [2, 3]	protein stability index [2, 4]	protein stability index [2, 5]	protein stability index [2, 6]	protein stability index [2, 7]	protein stability index [2, 8]	protein stability index [2, 9]
FVLFSIFHFFLW	0.382 ± 0.027	0.424 ± 0.084	0.438 ± 0.039	0.362 ± 0.051	0.528 ± 0.041	0.356 ± 0.0048	0.347 ± 0.016	0.47 ± 0.0094
WWVAGLGSSGGG	0.7348 ± 0.0046	0.738 ± 0.016	0.77959 ± 0.00011	0.663 ± 0.026	0.788 ± 0.0094	0.686 ± 0.031	0.677 ± 0.0094	0.765 ± 0.026
RPNTFRTRAKAL	0.274 ± 0.081	0.636 ± 0.013	0.712 ± 0.019	0.619 ± 0.026	0.734 ± 0.017	0.145 ± 0.003	0.168 ± 0.039	0.333 ± 0.057
FSPLVCLLFFLF	0.3938 ± 0.00098	0.492 ± 0.031	0.565 ± 0.018	0.424 ± 0.017	0.5725 ± 0.00062	0.32 ± 0.0052	0.333 ± 0.019	0.4778 ± 0.0016
VYGSLPVVVCRI	0.525 ± 0.065	0.534 ± 0.059	0.538 ± 0.013	0.409 ± 0.023	0.56 ± 0.016	0.4 ± 0.022	0.413 ± 0.011	0.539 ± 0.011
CSLRLCVRGAIV	0.0268 ± 0.022	0.667 ± 0.022	0.702 ± 0.021	0.602 ± 0.01	0.71597 ± 0.00049	0.586 ± 0.022	0.606 ± 0.0057	0.675 ± 0.024
WNSQGVFILAKC	0.4783 ± 0.0023	0.54 ± 0.035	0.588 ± 0.032	0.375 ± 0.026	0.5687 ± 0.0026	0.334 ± 0.021	0.372 ± 0.021	0.561 ± 0.00046
LAEHIFLVLDHG	0.453 ± 0.013	0.451 ± 0.026	0.485 ± 0.013	0.428 ± 0.0085	0.499 ± 0.0062	0.463 ± 0.024	0.432 ± 0.0071	0.478 ± 0.0089
LLFPRVLVLCFS	0.183 ± 0.029	0.034 ± 0.011	0.0512 ± 0.0018	0.124 ± 0.037	0.154 ± 0.0093	0.105 ± 0.016	0.117 ± 0.024	0.116 ± 0.012
ACLVAVWRWVFV	0.126 ± 0.024	0.276 ± 0.017	0.44 ± 0.037	0.309 ± 0.024	0.475 ± 0.0051	0.0646 ± 0.012	0.0758 ± 0.0066	0.0704 ± 0.0067
CVLLRPGFLVLV	0.234 ± 0.011	0.1771 ± 0.0015	0.148 ± 0.011	0.207 ± 0.021	0.278 ± 0.013	0.2144 ± 0.0018	0.166 ± 0.014	0.216 ± 0.016
VFVFTFSLSFYC	0.3465 ± 0.0031	0.223 ± 0.031	0.326 ± 0.0073	0.25 ± 0.028	0.356 ± 0.019	0.257 ± 0.02	0.274 ± 0.018	0.3241 ± 0.0021
WEPILLELELCV	0.4357 ± 0.0036	0.498 ± 0.035	0.497 ± 0.026	0.395 ± 0.03	0.487 ± 0.023	0.327 ± 0.021	0.388 ± 0.013	0.538 ± 0.068
MALAVRVVTCGA	0.375 ± 0.076	0.185 ± 0.014	0.297 ± 0.075	0.228 ± 0.036	0.363 ± 0.014	0.191 ± 0.0047	0.223 ± 0.031	0.313 ± 0.015
VYIVLLLLFLRP	0.308 ± 0.031	0.356 ± 0.0046	0.378 ± 0.013	0.317 ± 0.031	0.407 ± 0.021	0.3194 ± 0.003	0.319 ± 0.015	0.3951 ± 0.0015
FWYIRIRLAVVA	0.0536 ± 0.019	0.0797 ± 0.027	0.175 ± 0.029	0.0867 ± 0.013	0.179 ± 0.006	0.0283 ± 0.0015	0.0257 ± 0.0096	0.0826 ± 0.01
VACLRLTVYVMG	0.193 ± 0.028	0.0455 ± 0.0053	0.0789 ± 0.015	0.128 ± 0.025	0.231 ± 0.0037	0.101 ± 0.009	0.124 ± 0.03	0.204 ± 0.016
VFIPFGFCLCFV	0.373 ± 0.0028	0.408 ± 0.012	0.4114 ± 0.0039	0.317 ± 0.019	0.466 ± 0.0087	0.318 ± 0.015	0.295 ± 0.017	0.4401 ± 0.0027
LFHVWSLRFFWL	0.391 ± 0.023	0.576 ± 0.039	0.669 ± 0.017	0.557 ± 0.018	0.6837 ± 0.0039	0.2583 ± 0.00064	0.282 ± 0.027	0.434 ± 0.015
FSCRRISFFLLV	0.182 ± 0.05	0.525 ± 0.014	0.676 ± 0.039	0.536 ± 0.043	0.628 ± 0.017	0.179 ± 0.011	0.176 ± 0.012	0.26 ± 0.015

Sequence	protein stability index [1]	protein stability index [2, 3]	protein stability index [2, 4]	protein stability index [2, 5]	protein stability index [2, 6]	protein stability index [2, 7]	protein stability index [2, 8]	protein stability index [2, 9]
RGRLKSSYFILF	0.497 ± 0.074	0.7 ± 0.032	0.7127 ± 0.0056	0.65 ± 0.013	0.7509 ± 0.0052	0.49 ± 0.0063	0.534 ± 0.047	0.671 ± 0.017
IWWFKELRVCRV	0.49 ± 0.013	0.506 ± 0.014	0.559 ± 0.013	0.435 ± 0.022	0.5589 ± 0.0019	0.4128 ± 0.0013	0.424 ± 0.024	0.539 ± 0.017
LFPVASLCLART	0.529 ± 0.065	0.643 ± 0.028	0.648 ± 0.048	0.527 ± 0.036	0.663 ± 0.0042	0.513 ± 0.022	0.524 ± 0.023	0.659 ± 0.057
GVVCWVVVFGGW	0.416 ± 0.035	0.307 ± 0.029	0.5008 ± 0.0019	0.281 ± 0.029	0.512 ± 0.0065	0.233 ± 0.0029	0.262 ± 0.034	0.442 ± 0.058
VVGVLLLYLNPF	0.4677 ± 0.0038	0.431 ± 0.0048	0.5071 ± 0.0037	0.351 ± 0.025	0.572 ± 0.023	0.3188 ± 0.0024	0.336 ± 0.039	0.525 ± 0.0095
YPLISVSLPCPS	0.489 ± 0.012	0.533 ± 0.018	0.6067 ± 0.0052	0.396 ± 0.042	0.585 ± 0.015	0.349 ± 0.005	0.404 ± 0.023	0.544 ± 0.016
RFFFFFPCLLAP	0.457 ± 0.048	0.349 ± 0.011	0.3411 ± 0.001	0.417 ± 0.019	0.525 ± 0.026	0.519 ± 0.025	0.418 ± 0.029	0.486 ± 0.006
VFVRDFLVSIVV	0.257 ± 0.014	0.0474 ± 0.014	0.0563 ± 0.0023	0.174 ± 0.025	0.196 ± 0.0061	0.139 ± 0.0096	0.164 ± 0.022	0.166 ± 0.011
FFFFFLLFFLRV	0.303 ± 0.04	0.229 ± 0.027	0.247 ± 0.007	0.303 ± 0.046	0.343 ± 0.018	0.313 ± 0.005	0.233 ± 0.018	0.313 ± 0.0043
ERFRLYFRPGIF	0.234 ± 0.091	0.635 ± 0.036	0.7213 ± 0.00075	0.653 ± 0.031	0.709 ± 0.021	0.296 ± 0.03	0.332 ± 0.015	0.58 ± 0.008
CVYGILLLVDVR	0.189 ± 0.0074	0.0231 ± 0.00051	0.0547 ± 0.039	0.106 ± 0.032	0.128 ± 0.005	0.0714 ± 0.034	0.0971 ± 0.018	0.143 ± 0.066
VASYVCIGVVWV	0.351 ± 0.035	0.4298 ± 0.0038	0.492 ± 0.061	0.301 ± 0.023	0.497 ± 0.025	0.262 ± 0.0045	0.299 ± 0.02	0.456 ± 0.01
VGAYSVVYVVFS	0.433 ± 0.036	0.481 ± 0.026	0.517 ± 0.011	0.322 ± 0.026	0.5467 ± 0.00081	0.272 ± 0.0067	0.318 ± 0.025	0.529 ± 0.0059
WLALSFFSFFFC	0.588 ± 0.19	0.654 ± 0.014	0.7221 ± 0.00075	0.588 ± 0.025	0.6825 ± 0.0042	0.577 ± 0.047	0.57 ± 0.026	0.66 ± 0.02
GWLSVLVYFLSG	0.408 ± 0.03	0.471 ± 0.025	0.545 ± 0.03	0.387 ± 0.034	0.5619 ± 0.0042	0.284 ± 0.0044	0.326 ± 0.0091	0.481 ± 0.022
GTSDLIALLMLT	0.509 ± 0.083	0.688 ± 0.047	0.7275 ± 0.0021	0.607 ± 0.011	0.7058 ± 0.0013	0.361 ± 0.026	0.403 ± 0.045	0.601 ± 0.007
ASGVFSRLVLVS	0.3097 ± 0.0016	0.323 ± 0.0038	0.335 ± 0.016	0.284 ± 0.03	0.4576 ± 0.0023	0.173 ± 0.012	0.201 ± 0.024	0.282 ± 0.0035
VKSAVLLFFLVT	0.257 ± 0.0044	0.357 ± 0.0084	0.483 ± 0.019	0.359 ± 0.031	0.537 ± 0.0055	0.178 ± 0.016	0.199 ± 0.021	0.312 ± 0.01
VPGPSPPRFTQR	0.559 ± 0.1	0.7134 ± 0.0016	0.762 ± 0.016	0.6584 ± 0.0019	0.741 ± 0.0094	0.644 ± 0.028	0.656 ± 0.011	0.692 ± 0.025
